Source: US20130225488A1 (CADILA HEALTHCARE, published 2013)
Where no end group is shown, it is not given here. [ ]: non-standard residue; d: D form. αMePhe(2-F) = C[C@](N)(Cc1ccccc1F)C(=O)O; Ac3c = NC1(C(=O)O)CC1

Legend:
Human GLP-1 receptor = Human GLP-1 receptor (human, UniProt P43220 24-463); experiment: cell-based or functional assay
Human glucagon receptor = Human glucagon receptor (human, UniProt P47871 26-477); experiment: cell-based or functional assay

Human GLP-1 receptor, sequence (P43220 24-463): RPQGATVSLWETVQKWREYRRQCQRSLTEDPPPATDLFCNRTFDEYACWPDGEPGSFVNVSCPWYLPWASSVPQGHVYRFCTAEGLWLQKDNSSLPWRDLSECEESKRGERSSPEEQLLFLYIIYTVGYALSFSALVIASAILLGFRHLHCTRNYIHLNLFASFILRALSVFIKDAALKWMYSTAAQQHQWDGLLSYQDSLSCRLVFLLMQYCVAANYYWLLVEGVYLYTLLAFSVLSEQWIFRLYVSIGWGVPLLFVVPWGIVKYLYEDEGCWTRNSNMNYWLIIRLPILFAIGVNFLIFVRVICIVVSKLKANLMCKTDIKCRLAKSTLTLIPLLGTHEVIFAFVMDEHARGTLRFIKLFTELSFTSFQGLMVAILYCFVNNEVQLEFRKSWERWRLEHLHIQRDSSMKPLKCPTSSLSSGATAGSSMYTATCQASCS

Row | Binder | cAMP release, % activity with respect to control; test compound 1 nM (Human GLP-1 receptor) [%] | cAMP release, % activity with respect to control; test compound 10 nM (Human GLP-1 receptor) [%] | cAMP release, % activity with respect to control; test compound 100 nM (Human GLP-1 receptor) [%] | cAMP release, % activity with respect to control; test compound 1 µM (Human GLP-1 receptor) [%] | cAMP release, % activity with respect to control; test compound 10 µM (Human GLP-1 receptor) [%] | cAMP production with saturated glucagon peptide; test compound 1 nM (Human glucagon receptor) [pmol/ml/µg prt] | cAMP production with saturated glucagon peptide; test compound 10 nM (Human glucagon receptor) [pmol/ml/µg prt] | cAMP production with saturated glucagon peptide; test compound 100 nM (Human glucagon receptor) [pmol/ml/µg prt] | cAMP production with saturated glucagon peptide; test compound 10 µM (Human glucagon receptor) [pmol/ml/µg prt] | cAMP production with saturated glucagon peptide; test compound '1 nM' (Human glucagon receptor) [pmol/ml/µg prt]
1 | HSQGTXTSDXX (α-Me-2F-Phe at 6; Bip(OMe) at 10; Bip(2Me) at 11) [Seq. ID. No. 21: HSQGT-(α-Me-2F-Phe)-TSD-Bip(OMe)-Bip(2Me)] | 39 | 80 | 86 | 95 | 98 | 19 | 17 | 15 | 12 | 14
2 | H[Ac3c]QGTFTSD[Bip(OMe)][Bip(2CF3)] (not fully specified) [Seq. ID. No. 20: H-(ACP)-QGTFTSD-Bip(OMe)-Bip(2CF3)] | – | – | – | – | – | 5 | 2 | 0 | 0 | 0
3 | HAQGT[αMePhe(2-F)]TSD[Bip(OMe)][Bip(2Me)] [Seq. ID. No. 25: HAQGT-(α-Me-2F-Phe)-TSD-Bip(OMe)-Bip(2Me)] | 38 | 77 | 85 | 94 | 97 | 18 | 16 | 12 | 6 | 8
4 | H[Ac3c]QGTFTSD[Bip(OMe)][Bip(2F)] [Seq. ID. No. 19: H-(ACP)-QGTFTSD-Bip(OMe)-Bip(2F)] | – | – | – | – | – | 5 | 3 | 1 | 0 | 0
5 | HSQGTXTSDXX (α-Me-2F-Phe at 6; Bip(OMe) at 10; Bip(2F) at 11) [Seq. ID. No. 23: HSQGT-(α-Me-2F-Phe)-TSD-Bip(OMe)-Bip(2F)] | 46 | 85 | 90 | 99 | 99 | 4 | 2 | 2 | 0 | 0
6 | HSQGTXTSDXX (α-Me-2F-Phe at 6; Bip(OMe) at 10; Bip(2CF3) at 11) [Seq. ID. No. 24: HSQGT-(α-Me-2F-Phe)-TSD-Bip(OMe)-Bip(2CF3)] | 41 | 82 | 87 | 95 | 98 | 4 | 2 | 0 | 0 | 0
7 | HSQGTFTSD[Bip(OMe)][Bip(Pyr)] (not fully specified (C-terminus); printed as HSQGTFTSD-Bip(OMe)-Bip(Pyr)) [Seq. ID. No. 6: HSQGTFTSD-Bip(OMe)-Bip(Pyr)] | 39 | 80 | 88 | 96 | 99 | – | – | – | – | –
8 | HAQGTFTSD[Bip(OMe)][Bip(2CF3)] [Seq. ID. No. 12: HAQGTFTSD-Bip(OMe)-Bip(2CF3)] | – | – | – | – | – | 5 | 3 | 0 | 0 | 0
9 | HAQGT[αMePhe(2-F)]TSD[Bip(OMe)][Bip(Pyr)] [Seq. ID. No. 26: HAQGT-(α-Me-2F-Phe)-TSD-Bip(OMe)-Bip(Pyr)] | – | – | – | – | – | 15 | 12 | 8 | 2 | 4
10 | HSQGTXTSDXX (α-Me-2F-Phe at 6; Bip(OMe) at 10; Bip(Pyr) at 11) [Seq. ID. No. 22: HSQGT-(α-Me-2F-Phe)-TSD-Bip(OMe)-Bip(Pyr)] | – | – | – | – | – | 21 | 19 | 18 | 16 | 18
11 | HAQGTFTSD[Bip(OMe)][Bip(Pyr)] [Seq. ID. No. 10: HAQGTFTSD-Bip(OMe)-Bip(Pyr)] | – | – | – | – | – | 15 | 12 | 8 | 2 | 4

More lines, now with the values ahead:

Row | cAMP release, % activity with respect to control; test compound 1 nM (Human GLP-1 receptor) [%] | cAMP release, % activity with respect to control; test compound 10 nM (Human GLP-1 receptor) [%] | cAMP release, % activity with respect to control; test compound 100 nM (Human GLP-1 receptor) [%] | cAMP release, % activity with respect to control; test compound 1 µM (Human GLP-1 receptor) [%] | cAMP release, % activity with respect to control; test compound 10 µM (Human GLP-1 receptor) [%] | cAMP production with saturated glucagon peptide; test compound 1 nM (Human glucagon receptor) [pmol/ml/µg prt] | cAMP production with saturated glucagon peptide; test compound 10 nM (Human glucagon receptor) [pmol/ml/µg prt] | cAMP production with saturated glucagon peptide; test compound 100 nM (Human glucagon receptor) [pmol/ml/µg prt] | cAMP production with saturated glucagon peptide; test compound 10 µM (Human glucagon receptor) [pmol/ml/µg prt] | cAMP production with saturated glucagon peptide; test compound '1 nM' (Human glucagon receptor) [pmol/ml/µg prt] | Binder
12 | 93 | 99 | 99 | 99 | 99 | 9 | 6 | 5 | 0 | 3 | HXQGTXTSDXX (Aib at 2; α-Me-2F-Phe at 6; Bip(OMe) at 10; Bip(Pyr) at 11) [Seq. ID. No. 30: H-Aib-QGT-(α-Me-2F-Phe)-TSD-Bip(OMe)-Bip(Pyr)]
13 | 93 | 99 | 99 | 99 | 99 | 6 | 5 | 2 | 0 | 0 | HXQGTXTSDXX (Aib at 2; α-Me-2F-Phe at 6; Bip(OMe) at 10; Bip(2F) at 11) [Seq. ID. No. 31: H-Aib-QGT-(α-Me-2F-Phe)-TSD-Bip(OMe)-Bip(2F)]
14 | 55 | 88 | 92 | 99 | 99 | 4 | 3 | 0 | 0 | 0 | HAQGT[αMePhe(2-F)]TSD[Bip(OMe)][Bip(2CF3)] [Seq. ID. No. 28: HAQGT-(α-Me-2F-Phe)-TSD-Bip(OMe)-Bip(2CF3)]
15 | – | – | – | – | – | 3 | 1 | 0 | 0 | 0 | HXQGTXTSDXX (not fully specified; ACP at 2; α-Me-2F-Phe at 6; Bip(OMe) at 10; Bip(2CF3) at 11) [Seq. ID. No. 36: H-(ACP)-QGT-(α-Me-2F-Phe)-TSD-Bip(OMe)-Bip(2CF3)]
16 | 82 | 87 | 92 | 99 | 99 | 14 | 11 | 7 | 0 | 3 | HAQGT[αMePhe(2-F)]TSD[Bip(OMe)][Bip(2F)] [Seq. ID. No. 27: HAQGT-(α-Me-2F-Phe)-TSD-Bip(OMe)-Bip(2F)]
17 | 99 | 99 | 99 | 99 | 99 | 4 | 2 | 0 | 0 | 0 | HXQGTXTSDXX (Aib at 2; α-Me-2F-Phe at 6; Bip(OMe) at 10; Bip(2CF3) at 11; C-terminal amide (CONH2)) [Seq. ID. No. 32: H-Aib-QGT-(α-Me-2F-Phe)-TSD-Bip(OMe)-Bip(2CF3)]
18 | 99 | 99 | 99 | 99 | 99 | 10 | 8 | 6 | 1 | 4 | HXQGTXTSDXX (Aib at 2; α-Me-2F-Phe at 6; Bip(OMe) at 10; Bip(2Me) at 11) [Seq. ID. No. 29: H-Aib-QGT-(α-Me-2F-Phe)-TSD-Bip(OMe)-Bip(2Me)]
19 | 99 | 99 | 99 | 99 | 99 | 0 | 0 | 0 | 0 | 0 | HXQGTXTSDXX (ACP at 2; α-Me-2F-Phe at 6; Bip(OMe) at 10; Bip(2Me) at 11) [Seq. ID. No. 33: H-(ACP)-QGT-(α-Me-2F-Phe)-TSD-Bip(OMe)-Bip(2Me)]
